Test results from US20240301385, “DNA MODIFYING ENZYMES AND ACTIVE FRAGMENTS AND VARIANTS THEREOF AND METHODS OF USE” (LIFEEDIT THERAPEUTICS, INC., published 2024).

Experiments:
APG05840-L16-nAPG07433.1 = APG05840-L16-nAPG07433.1 (synthetic); test: cell_activity; HEK293FT; PAM SEQ 152; conditions: tags: SV40 NLS, 3xFLAG N-term; nucleoplasmin NLS C-term
Method: (§1) 500 ng of plasmid comprising an expression cassette comprising a coding sequence for each fusion protein shown in Table 3 and 500 ng of plasmid comprising an expression cassette encoding an sgRNA shown in Table 4 were co-transfected into HEK293FT cells at 75-90% confluency in 24-well plates using Lipofectamine 2000 reagent (Life Technologies). Cells were then incubated at […] for 72 h. Following incubation, genomic DNA was then extracted using NucleoSpin 96 Tissue (Macherey-Nagel) following the manufacturer's protocol. The genomic region flanking the targeted genomic site was PCR amplified using the primers in Table 4 and products were purified using ZR-96 DNA Clean and Concentrator (Zymo Research) following the manufacturer's protocol. The purified PCR products were then sent for Next Generation Sequencing on Illumina MiSeq (2×250). Results were analyzed for INDEL formation or introduction of % specific cytosine mutations.
(§2) The position of each nucleotide in the target sequence was determined. “C17” indicates, for example, a cytosine at position 17 of the target sequence. The position of each nucleotide in the target sequence was determined by numbering the first nucleotide in the target sequence closest to the PAM as position 1, and the position number increases in the 3′ direction away from the PAM sequence.

[1] = biological target: T1, APG09980.1-L16-nAPG07433.1 (truncated deaminase) (synthetic); test: cell_activity; HEK293FT; PAM SEQ 152; conditions: tags: SV40 NLS, 3xFLAG N-term; nucleoplasmin NLS C-term
T1 chain: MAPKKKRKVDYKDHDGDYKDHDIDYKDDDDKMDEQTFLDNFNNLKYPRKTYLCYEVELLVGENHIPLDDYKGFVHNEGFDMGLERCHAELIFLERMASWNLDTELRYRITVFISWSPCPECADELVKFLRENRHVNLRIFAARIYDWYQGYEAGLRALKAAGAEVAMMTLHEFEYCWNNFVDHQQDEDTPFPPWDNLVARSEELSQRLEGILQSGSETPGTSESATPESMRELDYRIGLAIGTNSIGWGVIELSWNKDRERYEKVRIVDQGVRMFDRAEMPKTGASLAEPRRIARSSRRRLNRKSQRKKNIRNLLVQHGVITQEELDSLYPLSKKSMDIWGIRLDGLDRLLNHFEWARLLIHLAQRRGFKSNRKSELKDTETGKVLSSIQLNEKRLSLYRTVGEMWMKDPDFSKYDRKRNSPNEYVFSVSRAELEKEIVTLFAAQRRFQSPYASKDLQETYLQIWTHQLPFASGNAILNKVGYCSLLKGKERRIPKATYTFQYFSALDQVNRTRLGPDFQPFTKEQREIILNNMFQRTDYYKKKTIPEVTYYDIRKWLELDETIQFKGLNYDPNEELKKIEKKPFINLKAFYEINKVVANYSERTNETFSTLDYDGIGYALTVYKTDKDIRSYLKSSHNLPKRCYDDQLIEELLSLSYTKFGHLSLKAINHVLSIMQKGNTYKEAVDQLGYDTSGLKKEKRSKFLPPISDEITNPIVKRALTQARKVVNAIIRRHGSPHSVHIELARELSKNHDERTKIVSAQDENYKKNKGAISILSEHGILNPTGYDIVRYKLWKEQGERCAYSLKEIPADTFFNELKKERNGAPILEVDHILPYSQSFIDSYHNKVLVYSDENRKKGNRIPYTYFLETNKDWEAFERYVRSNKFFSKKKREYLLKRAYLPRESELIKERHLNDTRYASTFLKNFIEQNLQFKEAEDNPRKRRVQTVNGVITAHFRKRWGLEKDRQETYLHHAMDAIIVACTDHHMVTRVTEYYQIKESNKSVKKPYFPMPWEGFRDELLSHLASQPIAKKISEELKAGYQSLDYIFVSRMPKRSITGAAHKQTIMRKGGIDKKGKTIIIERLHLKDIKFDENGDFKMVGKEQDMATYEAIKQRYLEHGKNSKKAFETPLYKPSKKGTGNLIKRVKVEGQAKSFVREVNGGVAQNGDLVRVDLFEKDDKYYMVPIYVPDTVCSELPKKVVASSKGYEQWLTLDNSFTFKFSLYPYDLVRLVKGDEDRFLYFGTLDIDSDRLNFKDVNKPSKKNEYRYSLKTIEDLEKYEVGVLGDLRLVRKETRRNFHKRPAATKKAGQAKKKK
Method: as §1, §2

B1: SGN000930 sgRNA ; SGN000930 target (ssRNA ; dsDNA)
RNA: GAACAACUCAAAUGGAAAUGAAUAUGUCAUAGUUCCAUGAAAGCCAAAAGUGGCUUUGAUGUUUCUAUGAUAAGGGUUUCGGCCCGUGGCGUCGGGGAUCGCCUGCCCAUUCCGAUGGGCUUCUCCCCAUUUAUU
DNA 1: GAACAACTCAAATGGAAATGAATAT
DNA 2: ATATTCATTTCCATTTGAGTTGTTC
- activity (APG05840-L16-nAPG07433.1): 22.4 % mutated reads

B2: SGN001101 sgRNA ; SGN001101 target (ssRNA ; dsDNA)
RNA: AUAUUUUCUUUAAUGGUGCCAGGCAGUCAUAGUUCCAUUAAAGCCAAAAGUGGCUUUGAUGUUUCUAUGAUAAGGGUUUCGACCCGUGGCGUCGGGGAUCGCCUGCCCAUUGAAAUGGGCUUCUCCCCAU
DNA 1: ATATTTTCTTTAATGGTGCCAGGCA
DNA 2: TGCCTGGCACCATTAAAGAAAATAT
- activity (APG05840-L16-nAPG07433.1): 24.3 % mutated reads
- activity [1]: 30.5 % mutated reads

B3: SGN000929 sgRNA ; SGN000929 target (ssRNA ; dsDNA)
RNA: AUCUGGAGGGAACUUACAGCAUAUGGUCAUAGUUCCAUGAAAGCCAAAAGUGGCUUUGAUGUUUCUAUGAUAAGGGUUUCGGCCCGUGGCGUCGGGGAUCGCCUGCCCAUUCCGAUGGGCUUCUCCCCAUUUAUU
DNA 1: ATCTGGAGGGAACTTACAGCATATG
DNA 2: CATATGCTGTAAGTTCCCTCCAGAT
- activity (APG05840-L16-nAPG07433.1): 27.7 % mutated reads
- activity [1]: 25.9 % mutated reads

B4: SGN000169 sgRNA ; SGN000169 target (ssRNA ; dsDNA)
RNA: CACAUCUCGAGCAAGACGUUGUCAUAGUUCCAUUAAAGCCAAAAGUGGCUUUGAUGUUUCUAUGAUAAGGGUUUCGACCCGUGGCGUCGGGGAUCGCCUGCCCAUUGAAAUGGGCUUCUCCCCAUUUAUU
DNA 1: CACATCTCGAGCAAGACGTT
DNA 2: AACGTCTTGCTCGAGATGTG
- activity [1]: 24.1 % mutated reads
